From the supplement of paper PMC9112550, “Optimization of the antimicrobial peptide Bac7 by deep mutational scanning” (BMC Biology, 2022) come the findings set out here.
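Also: peptides expressed intracellularly from a pBAD plasmid library in pooled LB shake-flask culture, induced with 0.3% L-arabinose, DNA abundance read by NGS, three biological replicates, DESeq2 with apeglm shrinkage.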

The data set has as its system Escherichia coli TOP10. As to the kind of experiment: shrunken log2 fold change of peptide-encoding DNA abundance (4.5 h post-induction vs induction); higher = less antimicrobial activity (less host growth inhibition). Conditions: time post-induction: 4.5 h; library: site-saturation at positions 5, 18, 19, 20.
Turning to RRIRTRPPRLPRPRPRPMRMPRP, the “shrunken log2 fold change” value came out at 0.162.
As for RRIRRRPPRLPRPRPRPAPRPRP, the “shrunken log2 fold change” value is 0.996.
Turning to RRIRCRPPRLPRPRPRPYYIPRP, the “shrunken log2 fold change” value was -0.564.
The figure for RRIRTRPPRLPRPRPRPEPVPRP is 0.272; for RRIRARPPRLPRPRPRPYVIPRP it is -0.434.
Take RRIRGRPPRLPRPRPRPFPAPRP: the “shrunken log2 fold change” value came out at 0.757.
In the case of RRIRQRPPRLPRPRPRPKSRPRP, the “shrunken log2 fold change” value came to 0.0336.
With RRIRIRPPRLPRPRPRPNRVPRP, the “shrunken log2 fold change” value was -0.0802.
The figure for RRIRERPPRLPRPRPRPWARPRP is -0.0915; for RRIRQRPPRLPRPRPRPVIWPRP it is 0.124.
For the sequence RRIRKRPPRLPRPRPRPHWEPRP, the “shrunken log2 fold change” value is -0.102.
For RRIRVRPPRLPRPRPRPSNCPRP the value was -0.225; for RRIRHRPPRLPRPRPRPGCLPRP, -0.278; for RRIRFRPPRLPRPRPRPDHSPRP, -0.0664.
The figure for RRIRIRPPRLPRPRPRPMEQPRP is -0.00783; for RRIRSRPPRLPRPRPRPCVTPRP it is 0.0116; for RRIRMRPPRLPRPRPRPDSKPRP it is 0.732.
For the sequence RRIRPRPPRLPRPRPRPIHDPRP, the “shrunken log2 fold change” value was -0.0217.
With RRIRARPPRLPRPRPRPPDAPRP, the “shrunken log2 fold change” value amounted to 1.25.
The figure for RRIRPRPPRLPRPRPRPMFDPRP is -0.231.
For RRIRERPPRLPRPRPRPFWDPRP the value was 0.029; for RRIRHRPPRLPRPRPRPLRFPRP, -0.172; for RRIRARPPRLPRPRPRPGEVPRP, 0.935.
Take RRIRKRPPRLPRPRPRPFRCPRP: the “shrunken log2 fold change” value was -0.142.
For RRIRPRPPRLPRPRPRPIFFPRP the value was 0.211.
Take RRIRKRPPRLPRPRPRPKVWPRP: the “shrunken log2 fold change” value is 0.354.
For RRIRGRPPRLPRPRPRPSCNPRP the value was 0.588; for RRIRHRPPRLPRPRPRPHQDPRP, -0.249; for RRIRTRPPRLPRPRPRPMHVPRP, -0.0197.
As to RRIRTRPPRLPRPRPRPWVAPRP, the “shrunken log2 fold change” value was -0.0456.
The figure for RRIRDRPPRLPRPRPRPRYLPRP is -0.171.
Take RRIRIRPPRLPRPRPRPQDSPRP: the “shrunken log2 fold change” value is -0.269.
With RRIRCRPPRLPRPRPRPCNHPRP, the “shrunken log2 fold change” value was -0.227.
Consider RRIRGRPPRLPRPRPRPKEYPRP, for which the “shrunken log2 fold change” value is -0.102.
The figure for RRIRCRPPRLPRPRPRPISEPRP is -0.0601; for RRIRVRPPRLPRPRPRPHIDPRP it is -0.15.
For RRIRRRPPRLPRPRPRPPHFPRP the value was 0.897.
For RRIRWRPPRLPRPRPRPSQHPRP the value was 0.0667; for RRIRDRPPRLPRPRPRPNCVPRP, 0.0238; for RRIRMRPPRLPRPRPRPCNLPRP, -0.369.
Regarding RRIRNRPPRLPRPRPRPKSQPRP, the “shrunken log2 fold change” value was found to be 0.0119.
For RRIRVRPPRLPRPRPRPMCQPRP the value was -0.0733; for RRIRGRPPRLPRPRPRPIWLPRP, 0.159.
The figure for RRIRTRPPRLPRPRPRPDPWPRP is 0.0451; for RRIRLRPPRLPRPRPRPHMEPRP it is -0.101.
The figure for RRIRIRPPRLPRPRPRPGVEPRP is -0.0594.
Take RRIRYRPPRLPRPRPRPNCDPRP: the “shrunken log2 fold change” value is -0.504.
For RRIRWRPPRLPRPRPRPLKSPRP, the “shrunken log2 fold change” value was determined as 0.183.
On to RRIRHRPPRLPRPRPRPHKSPRP, for which the “shrunken log2 fold change” value was -0.337.
The figure for RRIRMRPPRLPRPRPRPDSDPRP is 2.6; for RRIRKRPPRLPRPRPRPEFMPRP it is 0.541; for RRIRTRPPRLPRPRPRPLGTPRP it is -0.145.
The figure for RRIRRRPPRLPRPRPRPVKWPRP is 0.111.
The figure for RRIRFRPPRLPRPRPRPTVRPRP is 0.0843; for RRIRVRPPRLPRPRPRPDPIPRP it is -0.00485.
On to RRIRQRPPRLPRPRPRPECQPRP, for which the “shrunken log2 fold change” value was -0.0746.
RRIRTRPPRLPRPRPRPDPIPRP: the “shrunken log2 fold change” value was determined as 0.03.
The figure for RRIRNRPPRLPRPRPRPNEGPRP is 0.000589; for RRIRVRPPRLPRPRPRPVWRPRP it is 0.309; for RRIRRRPPRLPRPRPRPDCVPRP it is -0.0143.
For RRIRIRPPRLPRPRPRPISPPRP the value was 0.0361; for RRIRNRPPRLPRPRPRPRNTPRP, -0.505.
Consider RRIRYRPPRLPRPRPRPMGWPRP, for which the “shrunken log2 fold change” value was -0.134.
The figure for RRIRTRPPRLPRPRPRPMRGPRP is -0.0594.
As for RRIRKRPPRLPRPRPRPICHPRP, the “shrunken log2 fold change” value was 0.132.
For the sequence RRIRSRPPRLPRPRPRPAACPRP, the “shrunken log2 fold change” value was 0.222.
For RRIRKRPPRLPRPRPRPCHHPRP the value was -0.411; for RRIRKRPPRLPRPRPRPQIMPRP, -0.103.
Consider RRIRQRPPRLPRPRPRPTNEPRP, for which the “shrunken log2 fold change” value was -0.395.
The figure for RRIRGRPPRLPRPRPRPAMNPRP is 0.542.
For RRIRQRPPRLPRPRPRPYLIPRP the value was -0.89.
For RRIRSRPPRLPRPRPRPWIDPRP, the “shrunken log2 fold change” value is -0.615.
For RRIRCRPPRLPRPRPRPMYIPRP the value was -0.675; for RRIRMRPPRLPRPRPRPWLAPRP, 0.0737.
For RRIRVRPPRLPRPRPRPAYDPRP the value was -0.565.
Consider RRIRPRPPRLPRPRPRPRGLPRP, for which the “shrunken log2 fold change” value worked out at 0.198.
Regarding RRIRARPPRLPRPRPRPFIKPRP, the “shrunken log2 fold change” value was -0.529.
The figure for RRIRIRPPRLPRPRPRPNRRPRP is 0.041; for RRIRYRPPRLPRPRPRPQIEPRP it is 0.0413.
For RRIRHRPPRLPRPRPRPQGLPRP the value was -0.247.
For RRIRCRPPRLPRPRPRPQLRPRP, the “shrunken log2 fold change” value is -0.127.
The figure for RRIRDRPPRLPRPRPRPDENPRP is 0.511.
For RRIRPRPPRLPRPRPRPKFEPRP the value was 0.319; for RRIRMRPPRLPRPRPRPTNPPRP, 0.149.
For RRIRFRPPRLPRPRPRPFKMPRP the value was 1.77; for RRIRCRPPRLPRPRPRPMHWPRP, 0.00478; for RRIRHRPPRLPRPRPRPPPCPRP, 0.603.
For RRIRRRPPRLPRPRPRPGHRPRP, the “shrunken log2 fold change” value amounted to 0.192.
The figure for RRIRRRPPRLPRPRPRPSVPPRP is 0.063.
For RRIRFRPPRLPRPRPRPMRNPRP the value was 0.92; for RRIRCRPPRLPRPRPRPCKPPRP, -0.216; for RRIRRRPPRLPRPRPRPEAFPRP, 0.842.
On to RRIRYRPPRLPRPRPRPVMWPRP, for which the “shrunken log2 fold change” value came out at 3.51.
With RRIRFRPPRLPRPRPRPMWLPRP, the “shrunken log2 fold change” value amounted to 0.0605.
For RRIRSRPPRLPRPRPRPASMPRP the value was 0.0141; for RRIRCRPPRLPRPRPRPHRTPRP, -0.209.
For RRIRERPPRLPRPRPRPDGGPRP the value was 0.0135.
Turning to RRIRVRPPRLPRPRPRPWRTPRP, the “shrunken log2 fold change” value worked out at 0.0312.
For the sequence RRIRPRPPRLPRPRPRPVTEPRP, the “shrunken log2 fold change” value is -0.027.
For RRIRSRPPRLPRPRPRPTAYPRP the value was -0.00955; for RRIRDRPPRLPRPRPRPFHFPRP, -0.208; for RRIRQRPPRLPRPRPRPQSNPRP, -0.00933.
For RRIRLRPPRLPRPRPRPNTRPRP the value was -0.273; for RRIRVRPPRLPRPRPRPFPYPRP, -0.277.
The figure for RRIRNRPPRLPRPRPRPNIPPRP is -0.24; for RRIRGRPPRLPRPRPRPPWRPRP it is 1.07; for RRIRYRPPRLPRPRPRPSNQPRP it is -0.273.
As for RRIRPRPPRLPRPRPRPWTWPRP, the “shrunken log2 fold change” value is -0.0128.
RRIRWRPPRLPRPRPRPAVIPRP: the “shrunken log2 fold change” value is 0.0266.
For RRIRTRPPRLPRPRPRPKFPPRP, the “shrunken log2 fold change” value is -0.0959.
The figure for RRIRMRPPRLPRPRPRPVHLPRP is -0.0129.
With RRIRFRPPRLPRPRPRPQAQPRP, the “shrunken log2 fold change” value stood at 0.023.
For RRIRYRPPRLPRPRPRPANSPRP, the “shrunken log2 fold change” value was -0.11.
Take RRIRKRPPRLPRPRPRPSVFPRP: the “shrunken log2 fold change” value amounted to 0.244.
On to RRIRGRPPRLPRPRPRPFKCPRP, for which the “shrunken log2 fold change” value was -0.307.
With RRIRWRPPRLPRPRPRPPPGPRP, the “shrunken log2 fold change” value is 1.08.
For RRIRFRPPRLPRPRPRPFKVPRP the value was -0.327; for RRIRHRPPRLPRPRPRPHDQPRP, -0.104; for RRIRHRPPRLPRPRPRPERGPRP, 1.02.
The figure for RRIRCRPPRLPRPRPRPSNGPRP is -0.113; for RRIRWRPPRLPRPRPRPSSYPRP it is -0.123.
For RRIRKRPPRLPRPRPRPYPYPRP the value was -0.125; for RRIRARPPRLPRPRPRPIDSPRP, -0.0515; for RRIRIRPPRLPRPRPRPDVEPRP, -0.054.
RRIRLRPPRLPRPRPRPKLTPRP: the “shrunken log2 fold change” value was determined as 0.106.
